Earlier results, collected in patent publication US5977174A, “Cholinergic compositions and uses thereof” (Neuromedica, Inc., priority 1997, dated 1999).

B1: C84S tPA: tPA variants in which a cysteine at position 84 of the growth factor domain of native tPA is replaced by serine (protein, UniProt P00750 36-562, looked up, variant C84S)
Tissue-type plasminogen …: SYQVICRDEKTQMIYQQHQSWLRPVLRSNRVEYCWCNSGRAQCHSVPVKSCSEPRCFNGGTCQQALYFSDFVCQCPEGFAGKCSEIDTRATCYEDQGISYRGTWSTAESGAECTNWNSSALAQKPYSGRRPDAIRLGLGNHNYCRNPDRDSKPWCYVFKAGKYSSEFCSTPACSEGNSDCYFGNGSAYRGTHSLTESGASCLPWNSMILIGKVYTAQNPSAQALGLGKHNYCRNPDGDAKPWCHVLKNRRLTWEYCDVPSCSTCGLRQYSQPQFRIKGGLFADIASHPWQAAIFAKHRRSPGERFLCGGILISSCWILSAAHCFQERFPPHHLTVILGRTYRVVPGEEEQKFEVEKYIVHKEFDDDTYDNDIALLQLKSDSSRCAQESSVVRTVCLPPADLQLPDWTECELSGYGKHEALSPFYSERLKEAHVRLYPSSRCTSQHLLNRTVTDNMLCAGDTRSGGPQANLHDACQGDSGGPLVCLNDGRMTLVGIISWGLGCGQKDVPGVYTKVTNYLDWIRDNMRP
  in vivo half life vs native tPA: longer in vivo half life than native tPA
